One experiment has as its target c-Jun (unmodified) (UniProt P05412). Briefly: thermal melt of the mixture (FIG. 4).
Experiment [1] concerns the target bHLH MAX (unmodified Max) (UniProt P61244). Briefly: homodimer, dimerization study of FIG. 9.
The target of experiment [2] is c-Myc bHLH protein (murine) (UniProt P01108). The experiment in a line: heterodimer with c-Myc, dimerization study of FIG. 9.
c-Myc bHLH protein (murine), sequence (P01108 368-454 limits assumed, form in doubt): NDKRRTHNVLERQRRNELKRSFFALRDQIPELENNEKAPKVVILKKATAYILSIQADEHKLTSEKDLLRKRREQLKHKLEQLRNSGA

c-Jun (unmodified), sequence (P05412 241-331 limits assumed): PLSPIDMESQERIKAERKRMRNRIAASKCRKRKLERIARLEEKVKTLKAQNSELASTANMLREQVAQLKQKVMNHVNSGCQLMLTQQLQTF

What is called Tm is the temperature at which the thermal transition is half complete. In the case of “0heptad-Fos (c-Fos with the basic region deleted) (designed binder)”, the Tm with c-Jun (unmodified) stood at 53 °C. By Kd is commonly meant a measure of binding affinity in units of concentration. “bHLH MAX (unmodified Max) (from UniProt P61244 23-113)”: the Kd in experiment [1] was found to be 6 µM; in experiment [2], 0.03 µM.

The values are drawn from patent US6361968.
